Results reported in the Human Domainome abundance scans (Beltran et al. 2025).

B1: REST corepressor 3, residues 87 to 134; numbered along this chain, Q9P2K3 (parent)
chain: DEWTVEDKVLFEQAFSFHGKSFHRIQQMLPDKTIASLVKYYYSWKKTR

Variants of: B1
Assay: abundance fitness (aPCA) (normalised: wild type 0, dead -1); higher = more abundant; growth selection in yeast, the domain comes from the species named
Details: Homo sapiens

Abundance fitness of substitutions, site by site:
A14: K -0.393 | I -0.655 | L -0.392 | R -0.635 | T -0.609 | Y -0.578 | E -0.811 | S -0.993 | G -0.73 | F -0.453 | W -0.664 | C -0.71
F15: W -0.637 | T -0.604 | K -0.585 | C 0.29 | V -0.392 | L -0.658 | P -0.881 | R -0.675 | G -0.731 | S -0.632
E12: D -0.07 | R -1.01 | L -0.476 | G -0.708 | I -0.24 | V -0.801 | A -0.582 | S -0.822 | Q -0.528 | K -0.643 | T -0.252
F22: S -0.897 | A -0.692 | L -0.693 | W 0.52 | Y -0.424 | G -0.739 | V -0.809 | M -0.55 | R -1.07 | K -0.551
Q13: M -0.101 | C -1.02 | D -0.644 | I -0.56 | S -0.584 | K -0.458 | G -0.948 | A -0.389 | W -0.742 | L -0.679 | H -0.234 | R -0.46 | E -0.288 | F -0.614
V9: T -0.024 | N 0.166 | S -0.143 | M -0.592 | W -0.18 | R -0.167 | Y -0.581 | P -0.828
S16: Q -0.084 | V -0.393 | I -0.554 | Y -0.391 | K -0.22 | G -0.081 | M -0.167 | R -0.014 | T -0.427 | A -0.077 | W -0.568 | C -0.607 | E 0.339 | D 0.149 | L -0.257 | P -0.579
I25: K -0.54 | L -0.358 | P -0.568 | S -0.945 | D -0.531 | V -0.74 | M -0.708 | E -0.693 | Y -0.522 | R -0.975 | H -0.692 | T -0.713 | A -0.567 | G -0.903 | F -0.838
H23: K 0.381 | A -0.164 | G -0.642 | Q -0.258 | P -0.331 | V -0.3 | Y -0.702 | E -0.07 | N -0.124 | C -0.649 | R -0.407 | W -0.56 | S -0.092 | D -0.517
G19: S -0.487 | D -0.487 | V -0.805
P30: S -0.851 | A -0.811 | H -0.498 | F -0.182 | G -0.957 | W 0.322 | E -0.563 | Q -0.716 | L -0.928 | M -0.891 | K -0.177 | V -0.726
Q27: T -0.406 | R -0.244 | I -0.924 | C -0.752 | A 0.069 | K -0.419 | V 0.395 | M 0.449 | D -0.62 | S -0.482 | G -0.673 | L -0.326
F11: E -0.769 | G -0.768 | A -0.715 | C -0.265 | S -0.736 | P -0.834 | L -1.14 | D -0.873 | V -0.812
Q26: W -0.82 | L -0.648 | S -0.79 | R -0.232 | C -0.172 | F -0.595 | K 0.249 | G -0.757 | V -0.692 | Y -0.428 | M -0.438
D31: Y -0.027 | E 0.026 | S 0.225 | A -0.429 | V -0.517 | H -0.295 | T -0.316 | I -0.733 | G 0.029 | R -0.253
